Laboratory results: patent EP2985295A1 (Calypso Biotech SA, dated 2016)

What was measured:
Experiment in all cases: cell-based or functional assay
[1] = molecular target: mouse proMMP9 (mouse, UniProt P41245 20-730)
[2] = molecular target: Human proMMP9 (human, UniProt P14780 20-707)
[3] = molecular target: Human MMP9 (i.e. activated MMP9) (human, UniProt P14780 107-707)
[4] = molecular target: rat proMMP9 (rat, UniProt P50282 20-708)
[5] = molecular target: Cyno proMMP9 (Cynomologus monkey)

Chain of Human MMP9 (i.e. activated MMP9) (P14780 107-707): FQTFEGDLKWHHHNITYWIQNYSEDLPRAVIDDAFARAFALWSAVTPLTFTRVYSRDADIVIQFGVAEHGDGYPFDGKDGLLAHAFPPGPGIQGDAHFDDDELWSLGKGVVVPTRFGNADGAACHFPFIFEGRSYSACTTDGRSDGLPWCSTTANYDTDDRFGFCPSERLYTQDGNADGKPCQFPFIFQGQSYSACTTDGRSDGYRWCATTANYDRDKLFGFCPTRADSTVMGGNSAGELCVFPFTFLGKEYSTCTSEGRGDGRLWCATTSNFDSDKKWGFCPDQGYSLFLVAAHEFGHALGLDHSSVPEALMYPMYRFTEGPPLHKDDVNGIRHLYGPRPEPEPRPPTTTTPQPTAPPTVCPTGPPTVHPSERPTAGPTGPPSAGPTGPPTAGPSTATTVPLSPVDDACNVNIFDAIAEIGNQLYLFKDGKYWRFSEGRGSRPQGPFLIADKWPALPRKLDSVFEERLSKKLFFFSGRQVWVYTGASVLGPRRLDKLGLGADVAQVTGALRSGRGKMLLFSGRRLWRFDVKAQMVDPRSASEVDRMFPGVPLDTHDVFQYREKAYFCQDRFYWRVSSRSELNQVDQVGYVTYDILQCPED
Chain of mouse proMMP9 (P41245 20-730): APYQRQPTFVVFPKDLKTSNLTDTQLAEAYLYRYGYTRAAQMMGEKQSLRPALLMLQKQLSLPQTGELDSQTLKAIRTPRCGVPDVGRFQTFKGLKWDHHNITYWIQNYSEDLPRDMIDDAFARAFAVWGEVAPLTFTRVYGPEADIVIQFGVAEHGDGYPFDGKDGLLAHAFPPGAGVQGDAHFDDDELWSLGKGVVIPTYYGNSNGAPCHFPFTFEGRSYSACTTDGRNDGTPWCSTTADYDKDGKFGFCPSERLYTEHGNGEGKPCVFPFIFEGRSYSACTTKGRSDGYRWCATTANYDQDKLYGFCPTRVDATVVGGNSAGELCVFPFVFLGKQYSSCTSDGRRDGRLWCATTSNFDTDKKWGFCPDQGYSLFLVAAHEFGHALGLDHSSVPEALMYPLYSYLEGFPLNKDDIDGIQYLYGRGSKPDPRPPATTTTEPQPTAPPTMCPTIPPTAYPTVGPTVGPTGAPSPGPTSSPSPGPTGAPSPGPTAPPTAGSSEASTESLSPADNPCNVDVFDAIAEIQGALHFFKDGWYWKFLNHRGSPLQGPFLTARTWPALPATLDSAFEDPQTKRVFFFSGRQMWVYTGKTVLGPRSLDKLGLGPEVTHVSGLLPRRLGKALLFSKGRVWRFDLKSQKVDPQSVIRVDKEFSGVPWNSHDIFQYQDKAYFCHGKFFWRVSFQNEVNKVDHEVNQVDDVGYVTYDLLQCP
Chain of rat proMMP9 (P50282 20-708): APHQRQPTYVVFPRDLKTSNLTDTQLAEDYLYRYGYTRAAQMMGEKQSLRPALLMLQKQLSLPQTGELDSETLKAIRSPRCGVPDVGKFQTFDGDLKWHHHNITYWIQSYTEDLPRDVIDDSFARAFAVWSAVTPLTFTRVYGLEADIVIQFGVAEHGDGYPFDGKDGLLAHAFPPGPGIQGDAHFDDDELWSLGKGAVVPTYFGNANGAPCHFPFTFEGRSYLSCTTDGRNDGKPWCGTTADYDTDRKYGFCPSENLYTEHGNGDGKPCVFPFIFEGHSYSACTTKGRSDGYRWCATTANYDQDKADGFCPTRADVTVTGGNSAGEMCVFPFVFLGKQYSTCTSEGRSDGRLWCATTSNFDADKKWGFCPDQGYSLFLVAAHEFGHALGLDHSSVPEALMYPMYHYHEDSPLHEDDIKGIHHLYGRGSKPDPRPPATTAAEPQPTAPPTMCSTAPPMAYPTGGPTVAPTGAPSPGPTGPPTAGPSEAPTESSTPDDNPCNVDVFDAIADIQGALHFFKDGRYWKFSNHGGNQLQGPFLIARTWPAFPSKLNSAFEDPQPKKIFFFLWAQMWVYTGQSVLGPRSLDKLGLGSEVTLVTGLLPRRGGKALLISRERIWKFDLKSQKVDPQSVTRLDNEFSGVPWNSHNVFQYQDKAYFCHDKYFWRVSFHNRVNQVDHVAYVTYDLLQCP
Chain of Human proMMP9 (P14780 20-707): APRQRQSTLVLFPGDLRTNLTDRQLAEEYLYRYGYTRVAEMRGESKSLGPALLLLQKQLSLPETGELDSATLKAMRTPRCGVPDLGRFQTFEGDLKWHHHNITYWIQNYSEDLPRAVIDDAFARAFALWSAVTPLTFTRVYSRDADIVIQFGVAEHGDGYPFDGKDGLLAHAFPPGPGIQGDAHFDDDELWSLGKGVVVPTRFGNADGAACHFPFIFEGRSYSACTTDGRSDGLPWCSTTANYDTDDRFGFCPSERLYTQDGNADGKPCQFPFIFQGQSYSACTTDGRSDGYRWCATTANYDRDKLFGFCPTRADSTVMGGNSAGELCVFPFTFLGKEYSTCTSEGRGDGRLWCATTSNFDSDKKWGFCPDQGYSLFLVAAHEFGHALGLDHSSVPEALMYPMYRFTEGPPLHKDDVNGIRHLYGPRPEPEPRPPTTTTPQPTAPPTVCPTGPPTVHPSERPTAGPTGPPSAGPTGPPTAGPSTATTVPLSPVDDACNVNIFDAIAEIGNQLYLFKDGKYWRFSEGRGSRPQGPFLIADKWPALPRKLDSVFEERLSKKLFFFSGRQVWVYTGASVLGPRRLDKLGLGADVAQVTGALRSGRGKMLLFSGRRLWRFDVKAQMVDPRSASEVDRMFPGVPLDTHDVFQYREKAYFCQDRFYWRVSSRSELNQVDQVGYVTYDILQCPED

| Binder | Efficiency, neutralization of processing of mouse MMP9 and/or its catalytic activity on gelatin (MMP3/MMP9 assay) [1] [%] | IC50 (nM), neutralization of processing of mouse MMP9 and/or its catalytic activity on gelatin (MMP3/MMP9 assay) [1] [nM] | Efficiency, neutralization of proMMP9 processing and/or downstream catalytic activity on DQ-gelatin (MMP3/MMP9 assay) [2] [%] | IC50 (nM), neutralization of proMMP9 processing and/or downstream catalytic activity on DQ-gelatin (MMP3/MMP9 assay) [2] [nM] | Efficiency, neutralization of catalytic activity on DQ-gelatin (MMP9 assay) [3] [%] | IC50 (nM), neutralization of catalytic activity on DQ-gelatin (MMP9 assay) [3] [nM] | Efficiency, neutralization of processing of rat MMP9 and/or its catalytic activity on gelatin (MMP3/MMP9 assay) [4] [%] | IC50 (nM), neutralization of processing of rat MMP9 and/or its catalytic activity on gelatin (MMP3/MMP9 assay) [4] [nM] | Efficiency, neutralization of processing of cyno MMP9 and/or its catalytic activity on gelatin (MMP3/MMP9 assay) [5] [%] | IC50 (nM), neutralization of processing of cyno MMP9 and/or its catalytic activity on gelatin (MMP3/MMP9 assay) [5] [nM] |
| --- | --- | --- | --- | --- | --- | --- | --- | --- | --- | --- |
| G03-VH-GL / G06-VL-GL1 (antibody, V domains shown) VH: EVQLVQSGAEVKKPGASVKVSCKASGYTFTSYGISWVRQAPGQGLEWMGWISAYNGNTNYAQKLQGRVTMTTDTSTSTAYMELRSLRSDDTAVYYCARDYYGMDVWGQGTTVTVSS VL: QAVLTQPPSASGTPGQRVTISCSGSTFNIGSNTVNWYQQLPGTAPKLLIYSDSHRPSGVPDRFSGSNSWNTASLAISGLQSEDEADYYCQAWDSSAVVFGGGTKVTVLG | 30 | 151 | 100 | 0.21 | 50 | 0.13 | 100 | 64.7 | 100 | 0.04 |
| G03-VH-GL-V1 / G06-VL-GL1 (antibody, V domains shown) VH: EVQLVQSGAEVKKPGASVKVSCKASGYTFTSYGISWVRQAPGQGLEWMGYISAYNGNTNYAQKLQGRVTMTTDTSTSTAYMELRSLRSDDTAVYYCARDYYGMDVWGQGTTVTVSS VL: QAVLTQPPSASGTPGQRVTISCSGSTFNIGSNTVNWYQQLPGTAPKLLIYSDSHRPSGVPDRFSGSNSWNTASLAISGLQSEDEADYYCQAWDSSAVVFGGGTKVTVLG | 25 | 16.4 | 100 | 0.19 | 50 | 0.06 | 100 | 19 | 100 | 0.03 |
| G03-VH-GL-V1-V9 / G06-VL-GL1 (antibody, V domains shown) VH: EVQLVQSGAEVKKPGASVKVSCKASGYTFTSYGISWVRQAPGQGLEWMGYISAYNANTNYAQKLQGRVTMTTDTSTSTAYMELRSLRSDDTAVYYCARDYYGMDVWGQGTTVTVSS VL: QAVLTQPPSASGTPGQRVTISCSGSTFNIGSNTVNWYQQLPGTAPKLLIYSDSHRPSGVPDRFSGSNSWNTASLAISGLQSEDEADYYCQAWDSSAVVFGGGTKVTVLG | 25 | 12.6 | 100 | 0.21 | 50 | 0.11 | 100 | 93.6 | 100 | 0.14 |
